# Measurements as given in patent publication US20240060059A1.
# Several values for one entry are separate records, joined by “and”; a condition that tells them apart may be missing. Identical values can stand only once.
# Assays:
# Assay in all cases: cell-based or functional assay
# [196-297]-FRB = [196-297]-FRB (UniProt P42345)
# [1] = target: spHT 80 C-terminal fragment fused to FRB or FKBP
# [2] = target: spHT 133 C-terminal fragment fused to FRB or FKBP
# [3] = target: spHT 145 C-terminal fragment fused to FRB or FKBP
# [4] = target: spHT 157 C-terminal fragment fused to FRB or FKBP
# [5] = target: spHT 180 C-terminal fragment fused to FRB or FKBP
# Sequence of UniProt P42345 (P42345 other isoform, or with tags, fused parts or gaps limits assumed): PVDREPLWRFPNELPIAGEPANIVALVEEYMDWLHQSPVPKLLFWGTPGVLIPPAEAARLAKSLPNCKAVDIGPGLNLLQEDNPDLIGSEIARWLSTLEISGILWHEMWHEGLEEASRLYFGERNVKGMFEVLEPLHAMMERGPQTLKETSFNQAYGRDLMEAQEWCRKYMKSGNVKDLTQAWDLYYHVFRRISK
substance,measurement,setting,value
[1-195]-FKBP (from UniProt P62942 2-108),"fold fluorescence signal increase (JF646 ligand) in the presence of 50 nM rapamycin, E. coli lysates",[196-297]-FRB,4.7 fold and > 2 fold
spHT 80 N-terminal fragment fused to FRB or FKBP,"fold fluorescence signal increase (JF646 ligand) in the presence of 50 nM rapamycin, E. coli lysates",[1],> 2 fold
spHT 133 N-terminal fragment fused to FRB or FKBP,"fold fluorescence signal increase (JF646 ligand) in the presence of 50 nM rapamycin, E. coli lysates",[2],> 2 fold
spHT 145 N-terminal fragment fused to FRB or FKBP,"fold fluorescence signal increase (JF646 ligand) in the presence of 50 nM rapamycin, E. coli lysates",[3],> 2 fold
spHT 157 N-terminal fragment fused to FRB or FKBP,"fold fluorescence signal increase (JF646 ligand) in the presence of 50 nM rapamycin, E. coli lysates",[4],> 2 fold
spHT 180 N-terminal fragment fused to FRB or FKBP,"fold fluorescence signal increase (JF646 ligand) in the presence of 50 nM rapamycin, E. coli lysates",[5],> 2 fold
